{"source": "paper doi:10.1101/2021.08.01.454623", "binders": {"B1": {"name": "biotinylated 58rRNA (structured_RNA)", "RNA": "GCCAGGAUGUAGGCUUAGAAGCAGCCAUCAUUUAAAGAAAGCGUAAUAGCUCACUGGU"}}, "molecular_target": "CL11 (ribosomal protein L11 C-terminal domain, wild type) (Bacillus stearothermophilus, UniProt P56210 59-133)", "sequence (P56210 59-133)": "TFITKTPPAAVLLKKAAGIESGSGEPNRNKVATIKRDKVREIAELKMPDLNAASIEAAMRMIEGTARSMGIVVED", "experiment": "SPR"}
{"binder": "B1", "values": [{"measurement": "Kd", "value": 2.4, "unit": "nM"}]}
